According to publication PMC7588459 (Scientific Reports, 2020):

Columns and labels:
[1] = biological target: T1, Nipah virus attachment (receptor-binding) glycoprotein (GP), wild type (Nipah virus; strain of the assayed …, UniProt Q9IH62); test: BLI; settings: both partners purified
T1 construct: source: HEK 293-F FreeStyle, transiently transfected, purified from supernatant (Ni-NTA)

[2] = biological target: T1, Nipah virus attachment …; test: ELISA; settings: both partners purified

B1: monoclonal antibody m102.4 (wild type) (antibody, V domains shown)
VH: EVQVIQSGADVKKPGSSVKVSCKSSGGTFSKYAINWVRQAPGQGLEWMGGIIPILGIANYAQKFQGRVTITTDESTSTAYMELSSLRSEDTAVYYCARGWGREQLAPHPSQYYYYYYGMDVWGQGTTVTVSS
VL: EIVMTQSPGTLSLAPGERATLSCWASQSVRNNYLAWYQQKPGQAPRLVIYNGSTRATGIPDRFSGSGSGTDFTLTISRLDPEDFAVYYCQQYGNSRRVTFGGGTKVEIK
notes: also called wild-type Nipah antibody; anti-Nipah mAb
With B1 the Kd [1] was 0.07 ± 0.01 nM, the koff [1] was 4.53e-05 s⁻¹ and the kon [1] was 646000 M⁻¹ s⁻¹. For the same binder, the Kd [2] was 0.12 nM.
